Measurements published in patent US12031137B2, “Compositions comprising SASP modulators and senescence attenuators and uses thereof for modulating cellular senescence” (RSEM, LIMITED PARTNERSHIP, priority 2016, dated 2024).

T1: human VEGF165 (Homo sapiens, UniProt P15692)
T1 construct: made in house; host or cells: HEK293T
T1 sequence (P15692 27-191 isoform P15692-4): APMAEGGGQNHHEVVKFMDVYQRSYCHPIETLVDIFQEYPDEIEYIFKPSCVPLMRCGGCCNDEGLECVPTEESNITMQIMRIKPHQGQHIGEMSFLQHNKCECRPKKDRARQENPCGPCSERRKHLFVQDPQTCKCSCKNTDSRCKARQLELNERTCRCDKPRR


What was measured:
[1] = test system: SEMA3A-FC; experiment: Sema 3A binding assay on plate-coated purified traps (saturation curves, KD); details: for Binding to SEMA3A: Table 2, Yes/No
Procedure: (§1) Sema 3A and AP-VEGF165 binding assays. Saturation curves for the determinations of KD of binding to SEMA 3A or VEGF165 were obtained as follow. Wells of high protein binding 96 well plates (Maxisorp, Nunc) were coated with purified traps diluted in PBS and blocked afterward with binding buffer (PBS containing 2% casein and 0.05% Tween 20). The SEMA3A-FC (R&D systems) or AP-VEGF165 ligands were diluted in binding buffer over an extensive range of concentrations and added to wells. Following an overnight incubation, wells were washed with PBS containing 0.05% tween. Bound SEMA3a-FC was detected using an HRP-linked anti-Human IgG (Biorad) and ECL substrate (Pierce). Alternatively, bound AP-VEGF165 was detected using CPD star substrate (Roche). The Chemiluminescent signal was acquired on a TECAN reader. Dissociation constant (KD) were determined by non-linear curve fitting using the Graph Pad prism software.
(§2) The relative affinity of traps of the present invention to SEMA3A and VEGF has been assessed. Traps were prepared as described in Example 8.

[2] = molecular target: T1, human VEGF165; experiment: AP-VEGF165 binding assay on plate-coated purified traps (saturation curves, KD); details: AP-VEGF165 ligand, read-out: VEGF165 binding (dissociation constant)
Procedure: Production of AP-VEGF165. the coding sequence of the human VEGF165 variant 1 (NM_001025366) was sub-cloned in the pAPtag5 vector (GenHunter), in-frame with an Alkaline Phosphatase domain (AP-VEGF165). HEK293T cells were transfected with the AP-VEGF165 construct using a polyethylenimine (PEI) transfection method. Following the overnight transfection step, cells were cultured for an additional 60 hr in serum free media (In vitrogen). The cell media were collected and concentrated on a PES device (Pierce). The concentrated AP-VEGF165 ligand was analysed on PAGE-SDS and quantified using SimplyBlue safe stain (Life technologies).
as §1, §2

| Molecule | Binding to SEMA3A [1] | Kd [2] [nM] | Kd ([1]; traps coated on plate, overnight incubation, read-out: SEMA 3A-FC binding (dissociation constant)) [nM] |
| --- | --- | --- | --- |
| Trap S: NRP1 trap a1a2-b1-c, aa about 22-430 and 584-856; SEQ ID NOs 93/94 | Yes | 24.6 | – |
| Trap W: NRP1 trap a1a2-b1-c (in part), aa about 22-430 and 584-795; SEQ ID NOs 87/88 | Yes | 20.7 | 1.14 |
| Trap Z: NRP1 trap a1a2-b1b2-c, aa about 22-856, E319K, D320K; SEQ ID NOs 71/72 (protein) FRNDKCGDTIKIESPGYLTSPGYPHSYHPSEKCEWLIQAPDPYQRIMINFNPHFDLEDRDCKYDYVEVFDGENENGHFRGKFCGKIAPPPVVSSGPFLFIKFVSDYETHGAGFSIRYELFKRGPECSQNYTTPSGVIKSPGFPEKYPNSLECTYIVFAPKMSEIILEFESFDLEPDSNPPGGMFCRYDRLEIWDGFPDVGPHIGRYCGQKTPGRIRSSSGILSMVFYTDSAIAKEGFSANYSVLQSSVSEDFKCMEALGMESGEIHSDQITASSQYSTNWSAERSRLNYPENGWTPGKKSYREWIQVDLGLLRFVTAVGTQGAISKETKKKYYVKTYKIDVSSNGEDWITIKEGNKPVLFQGNTNPTDVVVAVFPKPLITRFVRIKPATWETGISMRFEVYGCKITDYPCSGMLGMVSGLISDSQITSSNQGDRNWMPENIRLVTSRSGWALPPAPHSYINEWLQIDLGEEKIVRGIIIQGGKHRENKVFMRKFKIGYSNNGSDWKMIMDDSKRKAKSFEGNNNYDTPELRTFPALSTRFIRIYPERATHGGLGLRMELLGCEVEAPTAGPTTPNGNLVDECDDDQANCHSGTGDDFQLTGGTTVLATEKPTVIDSTIQSEFPTYGFNCEFGWGSHKTFCHWEHDNHVQLKWSVLTSKTGPIQDHTGDGNFIYSQADENQKGKVARLVSPVVYSQNSAHCMTFWYHMSGSHVGTLRVKLRYQKPEEYDQLVWMAIGHQGDHWKEGRVLLHKSLKLYQVIFEGEIGKGNLGGIAVDDISINNHISQEDCAKPADLDKKNPEIKIDETGSTPGYEGEGEGDKNISRKPGNVLKTLDPRSGSKENLYFQG | Yes | 67 | – |
| Trap AB: NRP1 trap a1a2-b1b2-c, aa about 22-856, E348K, S346A; SEQ ID NOs 73/74 (protein) FRNDKCGDTIKIESPGYLTSPGYPHSYHPSEKCEWLIQAPDPYQRIMINFNPHFDLEDRDCKYDYVEVFDGENENGHFRGKFCGKIAPPPVVSSGPFLFIKFVSDYETHGAGFSIRYELFKRGPECSQNYTTPSGVIKSPGFPEKYPNSLECTYIVFAPKMSEIILEFESFDLEPDSNPPGGMFCRYDRLEIWDGFPDVGPHIGRYCGQKTPGRIRSSSGILSMVFYTDSAIAKEGFSANYSVLQSSVSEDFKCMEALGMESGEIHSDQITASSQYSTNWSAERSRLNYPENGWTPGEDSYREWIQVDLGLLRFVTAVGTQGAIAKKTKKKYYVKTYKIDVSSNGEDWITIKEGNKPVLFQGNTNPTDVVVAVFPKPLITRFVRIKPATWETGISMRFEVYGCKITDYPCSGMLGMVSGLISDSQITSSNQGDRNWMPENIRLVTSRSGWALPPAPHSYINEWLQIDLGEEKIVRGIIIQGGKHRENKVFMRKFKIGYSNNGSDWKMIMDDSKRKAKSFEGNNNYDTPELRTFPALSTRFIRIYPERATHGGLGLRMELLGCEVEAPTAGPTTPNGNLVDECDDDQANCHSGTGDDFQLTGGTTVLATEKPTVIDSTIQSEFPTYGFNCEFGWGSHKTFCHWEHDNHVQLKWSVLTSKTGPIQDHTGDGNFIYSQADENQKGKVARLVSPVVYSQNSAHCMTFWYHMSGSHVGTLRVKLRYQKPEEYDQLVWMAIGHQGDHWKEGRVLLHKSLKLYQVIFEGEIGKGNLGGIAVDDISINNHISQEDCAKPADLDKKNPEIKIDETGSTPGYEGEGEGDKNISRKPGNVLKTLDPRSGSKENLYFQG | No | 29.5 | – |
| Trap AJ: NRP1 trap a2b1b2c, aa about 22-26, 143-630 and 701-856; SEQ ID NOs 59/60 (protein) MERGLPLLCAVLALVLAPAGAFRNDKRGPECSQNYTTPSGVIKSPGFPEKYPNSLECTYIVFAPKMSEIILEFESFDLEPDSNPPGGMFCRYDRLEIWDGFPDVGPHIGRYCGQKTPGRIRSSSGILSMVFYTDSAIAKEGFSANYSVLQSSVSEDFKCMEALGMESGEIHSDQITASSQYSTNWSAERSRLNYPENGWTPGEDSYREWIQVDLGLLRFVTAVGTQGAISKETKKKYYVKTYKIDVSSNGEDWITIKEGNKPVLFQGNTNPTDVVVAVFPKPLITRFVRIKPATWETGISMRFEVYGCKITDYPCSGMLGMVSGLISDSQITSSNQGDRNWMPENIRLVTSRSGWALPPAPHSYINEWLQIDLGEEKIVRGIIIQGGKHRENKVFMRKFKIGYSNNGSDWKMIMDDSKRKAKSFEGNNNYDTPELRTFPALSTRFIRIYPERATHGGLGLRMELLGCEVEAPTAGPTTPNGNLVDECDDDQANCHSGTGDDFQLTGGTTVLATEKPTVIDSTIQSEFPTYGFNCEFGWGSHKTFCHWEHDNHVQLKWSVLTSKTGPIQDHTGDGNFIYSQADENQKGKVARLVSPVVYSQNSAHCMTFWYHMSGSHVGTLRVKLRYQKPEEYDQLVWMAIGHQGDHWKEGRVLLHKSLKLYQVIFEGEIGKGNLGGIAVDDISINNHISQEDCAKPADLDKKNPEIKIDETGSTPGYEGEGEGDKNISRKPGNVLKTLDPRSGSKENLYFQG | Yes | – | – |
| Trap AK: NRP1 trap a2b1b2, aa about 22-26 and 143-583; SEQ ID NOs 61/62 (protein) MERGLPLLCAVLALVLAPAGAFRNDKRGPECSQNYTTPSGVIKSPGFPEKYPNSLECTYIVFAPKMSEIILEFESFDLEPDSNPPGGMFCRYDRLEIWDGFPDVGPHIGRYCGQKTPGRIRSSSGILSMVFYTDSAIAKEGFSANYSVLQSSVSEDFKCMEALGMESGEIHSDQITASSQYSTNWSAERSRLNYPENGWTPGEDSYREWIQVDLGLLRFVTAVGTQGAISKETKKKYYVKTYKIDVSSNGEDWITIKEGNKPVLFQGNTNPTDVVVAVFPKPLITRFVRIKPATWETGISMRFEVYGCKITDYPCSGMLGMVSGLISDSQITSSNQGDRNWMPENIRLVTSRSGWALPPAPHSYINEWLQIDLGEEKIVRGIIIQGGKHRENKVFMRKFKIGYSNNGSDWKMIMDDSKRKAKSFEGNNNYDTPELRTFPALSTRFIRIYPERATHGGLGLRMELLGCRSGSKENLYFQG | Yes | – | – |
| Trap AR: NRP1 trap a2b1, aa about 22-26 and 143-424; SEQ ID NOs 63/64 (protein) MERGLPLLCAVLALVLAPAGAFRNDKRGPECSQNYTTPSGVIKSPGFPEKYPNSLECTYIVFAPKMSEIILEFESFDLEPDSNPPGGMFCRYDRLEIWDGFPDVGPHIGRYCGQKTPGRIRSSSGILSMVFYTDSAIAKEGFSANYSVLQSSVSEDFKCMEALGMESGEIHSDQITASSQYSTNWSAERSRLNYPENGWTPGEDSYREWIQVDLGLLRFVTAVGTQGAISKETKKKYYVKTYKIDVSSNGEDWITIKEGNKPVLFQGNTNPTDVVVAVFPKPLITRFVRIKPATWETGISMRFEVYGCRSGSKENLYFQG | Yes | – | – |
| Trap AS: NRP1 trap a2b1c, aa about 22-26, 143-430 and 584-856; SEQ ID NOs 65/66 (protein) MERGLPLLCAVLALVLAPAGAFRNDKRGPECSQNYTTPSGVIKSPGFPEKYPNSLECTYIVFAPKMSEIILEFESFDLEPDSNPPGGMFCRYDRLEIWDGFPDVGPHIGRYCGQKTPGRIRSSSGILSMVFYTDSAIAKEGFSANYSVLQSSVSEDFKCMEALGMESGEIHSDQITASSQYSTNWSAERSRLNYPENGWTPGEDSYREWIQVDLGLLRFVTAVGTQGAISKETKKKYYVKTYKIDVSSNGEDWITIKEGNKPVLFQGNTNPTDVVVAVFPKPLITRFVRIKPATWETGISMRFEVYGCKITDYPEVEAPTAGPTTPNGNLVDECDDDQANCHSGTGDDFQLTGGTTVLATEKPTVIDSTIQSEFPTYGFNCEFGWGSHKTFCHWEHDNHVQLKWSVLTSKTGPIQDHTGDGNFIYSQADENQKGKVARLVSPVVYSQNSAHCMTFWYHMSGSHVGTLRVKLRYQKPEEYDQLVWMAIGHQGDHWKEGRVLLHKSLKLYQVIFEGEIGKGNLGGIAVDDISINNHISQEDCAKPADLDKKNPEIKIDETGSTPGYEGEGEGDKNISRKPGNVLKTLDPRSGSKENLYFQG | Yes | – | – |
